In patent US20250145679A1:

Experiments:
[1] = biological target: T1, IL-2/15Rβ (CD122) ECD (human) (UniProt P14784); assay: SPR, Biacore 8K, complex captured on anti-human Fc CM5 chip, receptor ECD-His injected; ka and kd printed as NA
T1 sequence: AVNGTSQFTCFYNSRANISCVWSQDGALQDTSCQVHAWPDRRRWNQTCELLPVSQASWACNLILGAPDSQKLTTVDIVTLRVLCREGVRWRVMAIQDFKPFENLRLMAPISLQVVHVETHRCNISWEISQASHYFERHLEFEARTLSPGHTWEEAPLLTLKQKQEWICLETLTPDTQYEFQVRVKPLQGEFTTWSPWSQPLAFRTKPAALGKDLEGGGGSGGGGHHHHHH

[2] = biological target: human lymphoma (HH) cell line (human); assay: binding to HH cells, dose-dependent (FIG. 5); receptor on the cells not named

- Kd [1]: 8.58 µM
- EC50 [2]: 172 nM
B1: W327151-BMK1 (XENP24306) (Fc fusion, part only; not given: IL-15Ralpha-Fc chain, linker and Fc, not shown: a dimerising Fc or GST)
chain, part: NWVNVISDLKKIEDLIQSMHIDATLYTESNVHPSCKVTAMKCFLLELQVISLESGDASIHDTVQDLIILANNSLSSNGNVTESGCKECEELEEKNIKEFLQSFVHIVQMFINTS
